Measured values reported in CN111690066A (NANJING RONGJIEKANG BIOTECHNOLOGY CO LTD, dated 2020).

T1: 自产IL-4Rα重组蛋白 (in-house human recombinant IL-4Rα, residues 26-232 of NP_000409.1, expressed in 293F cells) (human, UniProt P24394 26-232)
T1 construct: range 26-232; Cloned into pcDNA3.4 and expressed in 293F cells; The construct itself is defined on NP_000409.1; also called RJK; 人源重组IL-4Rα蛋白
T1 sequence (looked up): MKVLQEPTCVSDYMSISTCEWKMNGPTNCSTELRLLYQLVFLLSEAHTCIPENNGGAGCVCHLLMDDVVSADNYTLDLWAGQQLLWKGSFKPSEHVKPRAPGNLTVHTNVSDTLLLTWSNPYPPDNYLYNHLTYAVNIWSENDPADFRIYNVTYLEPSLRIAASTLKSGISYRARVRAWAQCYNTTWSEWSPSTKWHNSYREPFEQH


Legend:
[1] = biological target: T1, 自产IL-4Rα重组蛋白 (in-house human …); assay: binding ELISA of purified VHH on IL-4Rα recombinant protein
[2] = biological target: T1, 自产IL-4Rα重组蛋白 (in-house human …); assay: BLI (Octet RED96), IL-4Rα loaded on the sensor, antibody in solution from 100 nM in 2-fold dilutions

Row | Binder | EC50 [1] [nM] | Kd [2] [nM] | koff [2] [s⁻¹] | kon [2] [M⁻¹ s⁻¹]
1 | 单域抗体 4E9 (VHH) VHH: QVQLVESGGGSVQAGGSLRLSCAASGDFYCMAWFRQAPGKEREGVATIRSGGRSTYYADSVKGRFTISKDNAKDTLYLQMNSLKPEDTAMYYCAVGVDGNCRNYWGQGTQVTVSS | 2.13 | 0.239 | 0.000133 | 556000
2 | 单域抗体 1A9 (VHH) VHH 1: QVPLQQSGPELVKPGASVKISCKASGYAFSSSWMNWVKQRPGKGLEWIGRIYPGDGDTKYNGKFKGKATLTADKSSSTAYMQLSSLTSEDSAVYFCARDDYDEASWGQGTLVTVSA VHH 2: DIVMTQSQKFMSTSVGDRVSITCKASQNVRSAVAWYQQKPGQSPKSLIYLASNRHTGVPDRFTGSGSGTDFTLTISNVQSEDLADYFCLQHWNYPFTFGSGTKLEIK | 2.72 | – | – | –
